Experimental findings from patent US9206246B2, “Heparin/heparan sulfate-dependent inhibitors of activated protein C and uses thereof in treating hemophilic disorders” (Academia Sinica, priority 2012, dated 2015) are described below.

One may read the Ki as a dissociation constant, usually derived from enzyme kinetics or from competition with a known ligand. As usually defined, the Kd is the concentration at which binding is half-saturated. Lower therefore signals tighter binding.

Where “and” joins values, the source holds several entries; their conditions need not be identical. Equal values may be shown once. Entries after “also recorded” stand apart in the source; their conditions may differ.

In assay [1] the target is T1, FXIa (Homo sapiens, UniProt P03951).
T1 construct: factor XIa (FXIa); purchased Haematologic Technologies
T1 sequence (P03951 388-625 limits assumed): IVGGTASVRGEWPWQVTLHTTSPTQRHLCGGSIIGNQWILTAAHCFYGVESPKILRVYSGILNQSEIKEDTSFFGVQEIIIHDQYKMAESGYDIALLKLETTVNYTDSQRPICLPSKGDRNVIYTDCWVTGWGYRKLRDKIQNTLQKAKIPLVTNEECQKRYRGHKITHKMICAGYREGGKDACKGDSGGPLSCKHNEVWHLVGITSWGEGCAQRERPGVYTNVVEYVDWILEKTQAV
T1 sequence (P03951 19-387 limits assumed): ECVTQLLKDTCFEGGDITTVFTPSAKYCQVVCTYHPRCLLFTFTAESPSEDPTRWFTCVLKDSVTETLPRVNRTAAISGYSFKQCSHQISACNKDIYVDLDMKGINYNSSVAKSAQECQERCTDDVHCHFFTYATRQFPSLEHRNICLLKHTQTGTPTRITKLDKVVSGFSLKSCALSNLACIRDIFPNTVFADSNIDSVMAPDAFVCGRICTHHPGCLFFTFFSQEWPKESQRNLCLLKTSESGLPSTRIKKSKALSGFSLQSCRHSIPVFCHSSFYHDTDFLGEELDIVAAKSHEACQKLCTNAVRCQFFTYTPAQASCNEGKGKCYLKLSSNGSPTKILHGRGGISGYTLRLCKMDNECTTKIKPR
The assay is described as follows: Selectivity profile and Ki, amidolytic activity of FXIa. The format is biochemical. The method, then:
(§1) In each of these experiments, the molar ratio of protease active site to inhibitor was 1:1. The final concentrations of these proteases and their respective substrates were as follows: FXIIa (20 nM)/S-2302 (0.2 mM), FXIa (2.5 nM)/S-2366 (0.2 mM), FXa (10 nM)/S-2222 (1.3 mM), FIXa (200 nM)/Spectrozyme FIXa (1.3 mM), FVIIa (100 nM)/S-2288 (1.3 mM), thrombin (5 nM)/T-1637 (0.2 mM), kallikrein (5 nM)/S-2302 (0.2 mM), plasmin (20 nM)/S-2251 (0.2 mM), tPA (80 nM)/Spectrozyme tPA (0.2 mM), uPA (100 nM)/S-2288 (1.3 mM), APC (10 nM)/Spectrozyme PCa (0.2 mM) and trypsin (5 nM)/S-2222 (0.2 mM). Results shown are means±SD of at least three experiments.
(§2) DrKIn-I, with or without heparin, was screened for its inhibitory activity against trypsin and also against serine proteases in the coagulation cascade (FXIIa, FXIa, FXa, FIXa, FVIIa, thrombin and kallikrein) and in the fibrinolytic system (plasmin, tPA and uPA). The amidolytic activities of these proteases were determined in the presence or absence of equimolar concentrations of DrKIn-I using their respective chromogenic substrates.

Assay [2] deals with T2, APC (Homo sapiens, UniProt P04070). In words: Surface plasmon resonance, immobilized APC. The format is binding. The arrangement: purchased Haematologic Technologies. As to conditions: no heparin. The method, then:
A: 70 μg of DrKIn-I in 0.1 ml equilibrating buffer (20 mM Tris-HCl, pH 8.0) was applied to a 5 ml HiTrap Heparin column and eluted with a 50 ml gradient from 0.0-1.0 M NaCl. […] The thin lines represent the global fit to the response data. […] Results shown are means±SD of three experiments. Representative binding traces are shown.
Biacore T200 (GE Healthcare) was used for analysis. APC or PC dissolved in 10 mM acetate buffer (pH 5.0) was immobilized on a CM5 sensor chip to a response unit (RU) of 1000 with an amine coupling kit. Associations and dissociations of DrKIn-I were performed in 10 mM HEPES (N-2-hydroxyethylpiperazine-N′-2-ethanesulfonic acid; pH 7.4), 150 mM NaCl, 3 mM EDTA (ethylenediaminetetraacetic acid) and 0.05% P20 with a flow rate of 60 μl/min. […] Binding kinetics were determined by global fitting to 1:1 Langmuir binding model using the Biaevaluation software (GE Healthcare).

A short description of assay [3]: Heparin binding assay (HiTrap Heparin column, NaCl gradient). As to conditions: 0.0-1.0 M NaCl gradient, 20 mM Tris-HCl pH 8.0. The method, then: A: 70 μg of DrKIn-I in 0.1 ml equilibrating buffer (20 mM Tris-HCl, pH 8.0) was applied to a 5 ml HiTrap Heparin column and eluted with a 50 ml gradient from 0.0-1.0 M NaCl. The salt concentration corresponding to the elution peak was determined to be 0.95 M. B, Binding of DrKIn-I (0.78, 1.56, 2.34, 3.13, 4.68 and 6.25 nM) to immobilized APC was assessed in buffer containing 10 mM HEPES, 0.15 M NaCl, 3 mM EDTA and 0.05% P20 at a flow rate of 60 μl/min at 25° C. […] The thin lines represent the global fit to the response data. […] Results shown are means±SD of three experiments. Representative binding traces are shown.

The test system of assay [4] is trypsin. The assay is described as follows: Selectivity profile, amidolytic activity of trypsin. The format is biochemical. As to conditions: equimolar DrKIn-I and enzyme active site, trypsin 5 nM. As to the method: as §1, §2
For assay [5], the target named is T2, APC. In words: APC-mediated FVa inactivation assay (residual FVa activity, prothrombin time-based). The format is biochemical. Also noted: purchased Haematologic Technologies. As to the method:
B: Dose-response curves of APC (10 nM) inhibition by DrKIn-I in the absence (◯) and presence (●) of 0.1 U/ml heparin. C: To determine the minimum concentration of heparin required for the potentiation APC inhibition, the activity of APC (20 nM) was measured after the addition of DrKIn-I (20 nM) and varying concentrations of heparin (0-1000 mU/ml). D: To assess the ability of heparan sulfate and the minimum length of heparan sulfate required to potentiate DrKIn-I-mediated APC inhibition, the amidolytic activity of APC was determined in the presence of DrKIn-I (20 nM) and different lengths of heparan sulfate chains (10 μg/ml each). E, Time course of FVa inactivation by APC (1 nM) was assessed in the absence (●) or presence (▪) of 5 nM DrKIn-I, or in the presence of 5 nM DrKIn-I supplemented with 0.1 U/ml heparin (▴), as described in “Materials and methods”. F, The effect of DrKIn-I (0-250 nM) and/or heparin (0.1 U/ml) on APC-mediated FVa inactivation was determined after 10 minutes of incubation at 37° C. with APC (5 nM). Results shown are means±SD of three experiments.
In assays involving FVa, 20 nM purified FVa was incubated at 37° C. with a mixture containing 1 nM or 5 nM APC, 20 nM protein S, 20 μM DOPC/DOPS (75:25) and 5-250 nM DrKIn-I in the presence or absence of 0.1 U/ml heparin. At specific time intervals, 5 μl aliquots were removed and mixed with 50 μl of FV-deficient plasma. The residual FVa activities were quantified in a standard prothrombin time-based assay using a calibration curved obtained by adding variable amounts of FVa to FV-deficient plasma. All concentrations given were final concentrations.

For assay [6], the target named is T3, plasmin (Homo sapiens, UniProt P00747).
T3 construct: thrombin, plasma kallikrein and plasmin were obtained; purchased Haematologic Technologies
T3 sequence (P00747 581-810 limits assumed): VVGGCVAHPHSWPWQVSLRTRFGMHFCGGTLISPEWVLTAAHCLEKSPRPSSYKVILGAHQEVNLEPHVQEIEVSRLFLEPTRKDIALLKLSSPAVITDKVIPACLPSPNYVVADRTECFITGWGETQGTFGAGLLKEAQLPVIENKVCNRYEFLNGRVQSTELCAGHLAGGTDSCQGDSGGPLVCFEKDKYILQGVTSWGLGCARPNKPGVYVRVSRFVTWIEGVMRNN
T3 sequence (P00747 97-580 limits assumed): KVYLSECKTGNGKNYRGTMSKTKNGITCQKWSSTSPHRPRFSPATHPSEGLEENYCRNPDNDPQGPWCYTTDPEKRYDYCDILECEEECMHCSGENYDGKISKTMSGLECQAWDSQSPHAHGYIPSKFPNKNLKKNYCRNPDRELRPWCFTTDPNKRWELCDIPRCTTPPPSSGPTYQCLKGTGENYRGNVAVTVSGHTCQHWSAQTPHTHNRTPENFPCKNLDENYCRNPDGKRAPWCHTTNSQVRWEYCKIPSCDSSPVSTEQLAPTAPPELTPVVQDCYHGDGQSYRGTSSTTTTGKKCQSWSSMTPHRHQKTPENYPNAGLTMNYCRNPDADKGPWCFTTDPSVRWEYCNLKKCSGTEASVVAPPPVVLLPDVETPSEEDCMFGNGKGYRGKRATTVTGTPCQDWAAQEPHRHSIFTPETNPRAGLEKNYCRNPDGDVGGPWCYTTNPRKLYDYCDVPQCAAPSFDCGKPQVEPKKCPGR
In words: Selectivity profile and Ki, amidolytic activity of plasmin. The format is biochemical. As to conditions: for inhibition of plasmin: equimolar, plasmin 20 nM. As to the method:
as §1, §2

Assay [7] concerns the target T4, factor Xa (FXa) (Homo sapiens, UniProt P00742).
T4 construct: factor Xa (FXa); purchased Haematologic Technologies
In words: Selectivity profile, amidolytic activity of FXa. The format is biochemical. As to the method: as §1, §2

Assay [8] concerns plasmin. The assay is described as follows: Euglobulin clot lysis assay. The format is biochemical.
Assay [9] concerns the target T5, thrombin (Homo sapiens, UniProt P00734).
T5 construct: thrombin, plasma kallikrein and plasmin were obtained; purchased Haematologic Technologies
In words: Selectivity profile, amidolytic activity of thrombin. The format is biochemical. As to the method:
as §1, §2

T2 sequence (P04070 212-450 limits assumed): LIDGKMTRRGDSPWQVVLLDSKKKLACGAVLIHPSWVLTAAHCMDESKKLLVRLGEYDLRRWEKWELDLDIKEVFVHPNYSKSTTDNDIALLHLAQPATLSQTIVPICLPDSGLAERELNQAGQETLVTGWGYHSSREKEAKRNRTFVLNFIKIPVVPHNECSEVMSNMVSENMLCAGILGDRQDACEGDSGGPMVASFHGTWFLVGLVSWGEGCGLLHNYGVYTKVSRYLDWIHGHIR
T2 sequence (P04070 43-197 limits assumed): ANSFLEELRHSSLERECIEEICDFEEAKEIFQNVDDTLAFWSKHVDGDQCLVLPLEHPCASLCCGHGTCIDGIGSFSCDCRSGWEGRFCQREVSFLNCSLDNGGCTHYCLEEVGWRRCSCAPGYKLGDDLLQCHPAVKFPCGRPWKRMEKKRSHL
T4 sequence (P00742 235-488 limits assumed): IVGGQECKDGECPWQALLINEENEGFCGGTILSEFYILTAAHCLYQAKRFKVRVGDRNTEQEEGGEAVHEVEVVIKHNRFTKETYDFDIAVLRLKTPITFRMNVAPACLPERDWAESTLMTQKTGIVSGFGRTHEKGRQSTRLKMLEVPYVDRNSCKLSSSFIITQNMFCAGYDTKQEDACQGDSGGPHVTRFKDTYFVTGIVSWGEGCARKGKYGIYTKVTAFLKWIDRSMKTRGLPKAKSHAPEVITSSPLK
T4 sequence (P00742 41-179 limits assumed): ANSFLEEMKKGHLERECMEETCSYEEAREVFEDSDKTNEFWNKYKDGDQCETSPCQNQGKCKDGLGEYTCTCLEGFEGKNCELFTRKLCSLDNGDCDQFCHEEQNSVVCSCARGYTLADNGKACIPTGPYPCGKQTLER

Regarding DrKIn-I (CGGNDNNFETRKKCRQTCGAPRKGRPT), in assay [1] (equimolar DrKIn-I and enzyme active site, FXIa 2.5 nM), the “inhibition of FXIa” value was about 40%. Moreover, the Ki worked out at 1.33 ± 0.08 nM in assay [1] (in the presence of heparin, read-out: Ki for FXIa inhibition) and 1.56 ± 0.09 nM in [6] (in the presence of heparin, read-out: Ki for plasmin inhibition). The association rate constant in [2] (1:1 Langmuir model) is 1.3±0.8×10^7 M^−1 s^−1 and ~1.3×10^7 M^−1 s^−1 and 1.7×10^7 M^−1 s^−1. Besides, the dissociation rate constant in assay [2] (1:1 Langmuir model) is given as 3.4±2.2×10^−2 s^−1. Further, the Kd in assay [2] (25° C.) is about 2.6 nM. The “NaCl concentration at elution from heparin column” value in [3] turned out to be 0.95 M. The same substance gave an inhibition of trypsin in [4] of about 45%. In addition, the “FVa protected from inactivation” value in [5] (5 nM DrKIn-I with 0.1 U/ml heparin, APC 1 nM, FVa 20 nM) was 100%; in assay [5] (250 nM DrKIn-I (50-fold molar excess) without heparin, APC 5 nM, 10 minutes) it was “less than 20%”. The “effect on APC-mediated FVa degradation” value in [5] (without heparin (5 nM DrKIn-I, APC 1 nM, FVa 20 nM)) was “relatively no effect on APC activity; also recorded: negligible”. The results for the inhibition of plasmin in assay [6] (in the absence of heparin) and in assay [6] (in the presence of heparin (0.1 U/ml)) were about 20% and about 70%, respectively. Moreover, the “inhibitory activity against factor Xa” value in assay [7] is “no inhibitory activities”. Moreover, the “prolongation of euglobulin clot lysis time” value in assay [8] (20 nM inhibitor) was “failed to prolong the clot lysis time”; in assay [8] (100 nM inhibitor) it was “approximately an hour”. The “inhibitory activity against thrombin” value in assay [9] was “no inhibitory activities”.
